We go through four molecules from patent US20200109196A1 (MOGAM INSTITUTE FOR BIOMEDICAL RESEARCH, published 2020).

Where a chain is given by its changes, count along the chain named.

The labels stand for the following.
T1: CEACAM3 expressed on the surface of HEK293 cells (human, UniProt P40198 35-252)
T1 construct: whole, on cells; GFP-tagged clone; also called CEACAM3-GFP
T1 sequence (looked up): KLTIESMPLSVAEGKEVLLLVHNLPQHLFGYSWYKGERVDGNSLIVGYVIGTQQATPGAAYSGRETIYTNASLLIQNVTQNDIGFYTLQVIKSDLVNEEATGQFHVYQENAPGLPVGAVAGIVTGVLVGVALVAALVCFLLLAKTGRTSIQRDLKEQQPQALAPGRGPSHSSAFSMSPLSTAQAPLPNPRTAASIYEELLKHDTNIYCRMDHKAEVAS

T2: CEACAM5 expressed on the surface of HEK293 cells (human, UniProt P06731 35-685)
T2 construct: whole, on cells; GFP-tagged clone; also called CEACAM5-GFP
T2 sequence (looked up): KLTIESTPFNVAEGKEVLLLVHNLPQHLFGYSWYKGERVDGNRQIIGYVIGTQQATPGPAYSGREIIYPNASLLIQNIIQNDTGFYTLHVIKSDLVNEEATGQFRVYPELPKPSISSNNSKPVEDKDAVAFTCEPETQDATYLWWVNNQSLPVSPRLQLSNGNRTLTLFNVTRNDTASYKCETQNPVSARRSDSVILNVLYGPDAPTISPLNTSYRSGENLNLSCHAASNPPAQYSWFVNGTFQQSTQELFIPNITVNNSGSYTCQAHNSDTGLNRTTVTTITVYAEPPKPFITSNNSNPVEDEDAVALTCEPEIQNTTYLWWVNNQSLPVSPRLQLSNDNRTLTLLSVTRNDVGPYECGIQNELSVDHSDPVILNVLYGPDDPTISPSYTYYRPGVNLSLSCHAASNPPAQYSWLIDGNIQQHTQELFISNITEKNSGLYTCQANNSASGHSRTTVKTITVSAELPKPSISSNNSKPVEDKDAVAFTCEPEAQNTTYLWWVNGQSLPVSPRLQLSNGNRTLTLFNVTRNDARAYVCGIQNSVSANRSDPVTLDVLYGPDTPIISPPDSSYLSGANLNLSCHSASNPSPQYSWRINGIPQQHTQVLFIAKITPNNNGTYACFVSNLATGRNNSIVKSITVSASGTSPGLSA

T3: CEACAM6 expressed on the surface of HEK293 cells (human, UniProt P40199 35-320)
T3 construct: whole, on cells; GFP-tagged clone; also called CEACAM6-GFP
T3 sequence (looked up): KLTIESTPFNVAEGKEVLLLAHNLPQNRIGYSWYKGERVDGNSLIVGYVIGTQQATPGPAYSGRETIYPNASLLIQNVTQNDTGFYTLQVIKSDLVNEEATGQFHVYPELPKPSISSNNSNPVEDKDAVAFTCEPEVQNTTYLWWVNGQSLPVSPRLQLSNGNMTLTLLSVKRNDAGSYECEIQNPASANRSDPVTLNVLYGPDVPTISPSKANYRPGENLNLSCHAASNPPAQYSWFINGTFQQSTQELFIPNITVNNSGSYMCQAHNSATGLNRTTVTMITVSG

T4: CEACAM8 expressed on the surface of HEK293 cells (human, UniProt P31997 35-320)
T4 construct: whole, on cells
T4 sequence (looked up): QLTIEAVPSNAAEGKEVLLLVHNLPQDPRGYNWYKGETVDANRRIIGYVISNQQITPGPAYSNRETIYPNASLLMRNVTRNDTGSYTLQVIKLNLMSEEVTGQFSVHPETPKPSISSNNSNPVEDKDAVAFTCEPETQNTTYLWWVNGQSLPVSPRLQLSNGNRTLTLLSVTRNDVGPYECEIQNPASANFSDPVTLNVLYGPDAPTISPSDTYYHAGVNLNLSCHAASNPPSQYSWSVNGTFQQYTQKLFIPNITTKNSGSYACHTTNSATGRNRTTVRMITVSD

B1: 4R26 (antibody, human IgG4 S228P, lambda, V domains shown)
VH: EVQLLESGGGLVQPGGSLRLSCAASGFTFSNYAMSWVRQAPGKGLEWVSVISHGGGSIYYADSVKGRLTISRDNSKNTLYLQMNSLRAEDTAVYYCARDPTKGYAPTFDYWGQGTLVTVSS
VL: QSVLTQPPSASGTPGQRVTISCSGSSSNIGNNYVSWYQQLPGTAPKLLIYADSKRLSGVPDRFSGSKSGTSASLAISGLRSEDEADYYCGAWDGRLNGYVFGGGTKLTVLG
notes: also called C25-derived clone 4R26
B2: 4R9 (antibody, human IgG4 S228P, lambda, V domains shown)
VH: B1 VH
VL: B1 VL with K54R, L56P, G94L, R95S
notes: also called C25-derived clone 4R9
B3: 4R9_H4-n20 (antibody, human IgG4 S228P, lambda, V domains shown)
VH: B1 VH with T28N
VL: B1 VL with K54R, L56P, G94L, R95S
notes: also called C25-derived clone 4R9_H4-n20
B4: 4R9_H2-2 (antibody, human IgG4 S228P, lambda, V domains shown)
VH: B1 VH with T107L
VL: B1 VL with K54R, L56P, G94L, R95S
notes: also called C25-derived clone 4R9_H2-2

The target in one assay is T1, CEACAM3 expressed on the surface of …. The assay can be described thus: flow cytometry on transfected HEK293 cells (GFP+ gate), PE goat anti-huIgG4 [b]. Here is the method: (§1) HEK293 cells were added with 10 μg of each pEF1α-AcGFP-N1 vector (Clontech, Cat. No. 631973) as a control vector, CEACAM1, CEACAM3, CEACAM5, CEACAM6 and CEACAM8 plasmid vectors, followed by transfection under the condition of pulse voltage 1,100 V, pulse width 20 ms and pulse number 2. After 48 hours of transfection, GFP expression was confirmed by fluorescence microscopy. The cells were detached by treatment with 1 ml of TrypLE Express Solution (ThermoFisher Scientific; Cat. No. 12605010), resuspended in 9 ml of DMEM (Gibco, Cat. No. 11995-065) supplemented with 10% (v/v) FBS, and centrifuged at 1,200 rpm for 5 minutes, to remove the resulting supernatant.
(§2) After washing once with PBS, the cells were resuspended in a FACS buffer to obtain a concentration of 5×10⁵ cells/100 μl. Human Fc Block solution was added to the samples at 1 μl/sample, which were incubated at 4° C. for 10 minutes. The cells were treated with hulgG4 or one of the anti-CEACAM1 clones listed at 1 μg/5×10⁵ cells, which were incubated at 4° C. for 10 minutes. After washing with FACS buffer, the PE-labeled goat-anti-huIgG4 antibodies were diluted at a ratio of 1:200 in a FACS buffer, and added to the samples at 100 μl/sample, which were incubated at 4° C. for 30 minutes. The samples were filled with a FACS buffer up to 200 μl, and then centrifuged at 1,200 rpm for 5 minutes, to remove the resulting supernatant. The fixation buffer (300 μl) was added to resuspend the cells. The cells expressing GFP were selected in the FACS LSR-Fortessa device, and the expression of CEACAM members were evaluated respectively using the antibody specific to each CEACAM member (Table 3). Also, the binding of anti-CEACAM1 antibodies was evaluated by PE fluorescence channel and analyzed using the FlowJo software.
For orientation: A flow cytometer gives signals particle by particle.
B1: the binding result was “no binding”.

For the molecule B2, the binding result is given as “no binding”.

For the molecule B3, the binding result is reported as “no binding”.

Take B4: the binding result is reported as “no binding”.

Another assay addresses T2, CEACAM5 expressed on the surface of …. Described as above. The method, then: as §1, §2
Take B1: the binding result is reported as “no binding”.

Turning to B2, the binding result is given as “no binding”.

Regarding B3, the binding result is “no binding”.

For B4, the binding result is “no binding”.

The next assay deals with T3, CEACAM6 expressed on the surface of …. The assay is described as above. Here is the method:
as §1, §2
With B1, the binding result is reported as “no binding”.

As to B2, the binding result was “no binding”.

Take B3: the binding result is on record as “no binding”.

As to B4, the binding result is given as “no binding”.

The target in another assay is T4, CEACAM8 expressed on the surface of …. The description is as above. Here is the method: as §1, §2
Consider B1, for which the binding result is listed as “no binding”.

Consider B2, for which the binding result is listed as “no binding”.

For B3, the binding result is recorded as “no binding”.

Take B4: the binding result is reported as “no binding”.
